Tests used:
[1] = tested on: HeLa Kyoto; experiment: thermal stability score vs G1/S (z-score of summed log2 fold changes over temperatures); higher = more thermally stable than in G1/S
[2] = tested on: HeLa Kyoto; experiment: solubility change mitosis vs G1/S (difference of NP-40 vs SDS log2 ratios) (log2 ratio difference); higher = more soluble in mitosis
[3] = tested on: HeLa Kyoto; experiment: melting temperature (median over replicates), in situ; higher = more thermally stable
[4] = tested on: HeLa Kyoto; experiment: solubility in G1/S (NP-40 vs SDS abundance) (log2 ratio); higher = more soluble; details: cell cycle stage: G1/S
[5] = cell cycle stage: early G1 (4.5 h after nocodazole release)
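Throughout, for melting temperature (median over replicates), in situ: HeLa Kyoto cells synchronized by double thymidine or nocodazole block, proteins quantified by TMT10plex mass spectrometry, three independent biological replicates.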
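Throughout, for solubility change mitosis vs G1/S (difference of NP-40 vs SDS log2 ratios): synchronized HeLa Kyoto cells (double thymidine block for G1/S, nocodazole release for mitosis), protein amounts in NP-40 versus SDS lysates quantified by mass spectrometry, three biological replicates.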
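Throughout, for solubility in G1/S (NP-40 vs SDS abundance): HeLa Kyoto cells arrested at G1/S by double thymidine block, proteins quantified by TMT10plex mass spectrometry in mild NP-40 versus SDS extracts, three biological replicates.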
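Throughout, for thermal stability score vs G1/S (z-score of summed log2 fold changes over temperatures): synchronized HeLa Kyoto cells, proteins quantified by TMT10plex mass spectrometry, three biological replicates, mitosis taken 0.5 h after nocodazole release, G1/S directly after double thymidine block.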

Sequence | thermal stability score [1, 5] | thermal stability score ([1]; cell cycle stage: mitosis) | solubility change mitosis (log2) [2] | melting temperature ([3]; cell cycle stage: G1/S) | melting temperature ([3]; cell cycle stage: mitosis) | solubility in G1/S (log2) [4]
MGPRSRERRAGAVQNTNDSSALSKRSLAARGYVQDPFAALLVPGAARRAPLIHRGYYVRARAVRHCVRAFLEQIGAPQAALRAQILSLGAGFDSLYFRLKTAGRLARAAVWEVDFPDVARRKAERIGETPELCALTGPFERGEPASALCFESADYCILGLDLRQLQRVEEALGAAGLDAASPTLLLAEAVLTYLEPESAAALIAWAAQRFPNALFVVYEQMRPQDAFGQFMLQHFRQLNSPLHGLERFPDVEAQRRRFLQAGWTACGAVDMNEFYHCFLPAEERRRVENIEPFDEFEEWHLKCAHYFILAASRGDTLSHTLVFPSSEAFPRVNPASPSGVFPASVVSSEGQVPNLKRYGHASVFLSPDVILSAGGFGEQEGRHCRVSQFHLLSRDCDSEWKGSQIGSCGTGVQWDGRLYHTMTRLSESRVLVLGGRLSPVSPALGVLQLHFFKSEDNNTEDLKVTITKAGRKDDSTLCCWRHSTTEVSCQNQEYLFVYGGRSVVEPVLSDWHFLHVGTMAWVRIPVEGEVPEARHSHSACTWQGGALIAGGLGASEEPLNSVLFLRPISCGFLWESVDIQPPITPRYSHTAHVLNGKLLLVGGIWIHSSSFPGVTVINLTTGLSSEYQIDTTYVPWPLMLHNHTSILLPEEQQLLLLGGGGNCFSFGTYFNPHTVTLDLSSLSAGQ [LCMT2] | -0.211 | -0.346 | -0.199 | 51.2 °C | 50.7 °C | -0.0889
MGQIEWAMWANEQALASGLILITGGIVATAGRFTQWYFGAYSIVAGVFVCLLEYPRGKRKKGSTMERWGQKYMTAVVKLFGPFTRNYYVRAVLHLLLSVPAGFLLATILGTACLAIASGIYLLAAVRGEQWTPIEPKPRERPQIGGTIKQPPSNPPPRPPAEARKKPSEEEAAVAAGGPPGGPQVNPIPVTDEVV [CYBA] | -0.561 | -1.21 | -0.167 | 54.8 °C | 54 °C | 0.005
MGQREMWRLMSRFNAFKRTNTILHHLRMSKHTDAAEEVLLEKKGCTGVITLNRPKFLNALTLNMIRQIYPQLKKWEQDPETFLIIIKGAGGKAFCAGGDIRVISEAEKAKQKIAPVFFREEYMLNNAVGSCQKPYVALIHGITMGGGVGLSVHGQFRVATEKCLFAMPETAIGLFPDVGGGYFLPRLQGKLGYFLALTGFRLKGRDVYRAGIATHFVDSEKLAMLEEDLLALKSPSKENIASVLENYHTESKIDRDKSFILEEHMDKINSCFSANTVEEIIENLQQDGSSFALEQLKVINKMSPTSLKITLRQLMEGSSKTLQEVLTMEYRLSQACMRGHDFHEGVRAVLIDKDQSPKWKPADLKEVTEEDLNNHFKSLGSSDLKF [HIBCH] | 0.653 | 0.967 | -0.019 | 49.7 °C | 50.2 °C | 0.343
MGQSGRSRHQKRARAQAQLRNLEAYAANPHSFVFTRGCTGRNIRQLSLDVRRVMEPLTASRLQVRKKNSLKDCVAVAGPLGVTHFLILSKTETNVYFKLMRLPGGPTLTFQVKKYSLVRDVVSSLRRHRMHEQQFAHPPLLVLNSFGPHGMHVKLMATMFQNLFPSINVHKVNLNTIKRCLLIDYNPDSQELDFRHYSIKVVPVGASRGMKKLLQEKFPNMSRLQDISELLATGAGLSESEAEPDGDHNITELPQAVAGRGNMRAQQSAVRLTEIGPRMTLQLIKVQEGVGEGKVMFHSFVSKTEEELQAILEAKEKKLRLKAQRQAQQAQNVQRKQEQREAHRKKSLEGMKKARVGGSDEEASGIPSRTASLELGEDDDEQEDDDIEYFCQAVGEAPSEDLFPEAKQKRLAKSPGRKRKRWEMDRGRGRLCDQKFPKTKDKSQGAQARRGPRGASRDGGRGRGRGRPGKRVA [PPAN] | -0.721 | -2.53 | 1.07 | 52.2 °C | 52 °C | -1.97
MGRESRHYRKRSASRGRSGSRSRSRSPSDKRSKRGDDRRSRSRDRDRRRERSRSRDKRRSRSRDRKRLRRSRSRERDRSRERRRSRSRDRRRSRSRSRGRRSRSSSPGNKSKKTENRSRSKEKTDGGESSKEKKKDKDDKEDEKEKDAGNFDQNKLEEEMRKRKERVEKWREEQRKKAMENIGELKKEIEEMKQGKKWSLEDDDDDEDDPAEAEKEGNEMEGEELDPLDAYMEEVKEEVKKFNMRSVKGGGGNEKKSGPTVTKVVTVVTTKKAVVDSDKKKGELMENDQDAMEYSSEEEEVDLQTALTGYQTKQRKLLEPVDHGKIEYEPFRKNFYVEVPELAKMSQEEVNVFRLEMEGITVKGKGCPKPIKSWVQCGISMKILNSLKKHGYEKPTPIQTQAIPAIMSGRDLIGIAKTGSGKTIAFLLPMFRHIMDQRSLEEGEGPIAVIMTPTRELALQITKECKKFSKTLGLRVVCVYGGTGISEQIAELKRGAEIIVCTPGRMIDMLAANSGRVTNLRRVTYVVLDEADRMFDMGFEPQVMRIVDNVRPDRQTVMFSATFPRAMEALARRILSKPIEVQVGGRSVVCSDVEQQVIVIEEEKKFLKLLELLGHYQESGSVIIFVDKQEHADGLLKDLMRASYPCMSLHGGIDQYDRDSIINDFKNGTCKLLVATSVAARGLDVKHLILVVNYSCPNHYEDYVHRAGRTGRAGNKGYAYTFITEDQARYAGDIIKALELSGTAVPPDLEKLWSDFKDQQKAEGKIIKKSSGFSGKGFKFDETEQALANERKKLQKAALGLQDSDDEDAAVDIDEQIESMFNSKKRVKDMAAPGTSSVPAPTAGNAEKLEIAKRLALRINAQKNLGIESQDVMQQATNAILRGGTILAPTVSAKTIAEQLAEKINAKLNYVPLEKQEEERQDGGQNESFKRYEEELEINDFPQTARWKVTSKEALQRISEYSEAAITIRGTYFPPGKEPKEGERKIYLAIESANELAVQKAKAEITRLIKEELIRLQNSYQPTNKGRYKVL [DDX46] | 3.63 | 9.43 | -0.00451 | 47.7 °C | 49.2 °C | -0.607
MGRIFLDHIGGTRLFSCANCDTILTNRSELISTRFTGATGRAFLFNKVVNLQYSEVQDRVMLTGRHMVRDVSCKNCNSKLGWIYEFATEDSQRYKEGRVILERALVRESEGFEEHVPSDNS [YPEL5] | 0.121 | -0.0508 | -0.00616 | 50.7 °C | 52.5 °C | 0.00475
MGRSGKLPSGVSAKLKRWKKGHSSDSNPAICRHRQAARSRFFSRPSGRSDLTVDAVKLHNELQSGSLRLGKSEAPETPMEEEAELVLTEKSSGTFLSGLSDCTNVTFSKVQRFWESNSAAHKEICAVLAAVTEVIRSQGGKETETEYFAALMTTMEAVESPESLAAVAYLLNLVLKRVPSPVLIKKFSDTSKAFMDIMSAQASSGSTSVLRWVLSCLATLLRKQDLEAWGYPVTLQVYHGLLSFTVHPKPKIRKAAQHGVCSVLKGSEFMFEKAPAHHPAAISTAKFCIQEIEKSGGSKEATTTLHMLTLLKDLLPCFPEGLVKSCSETLLRVMTLSHVLVTACAMQAFHSLFHARPGLSTLSAELNAQIITALYDYVPSENDLQPLLAWLKVMEKAHINLVRLQWDLGLGHLPRFFGTAVTCLLSPHSQVLTAATQSLKEILKECVAPHMADIGSVTSSASGPAQSVAKMFRAVEEGLTYKFHAAWSSVLQLLCVFFEACGRQAHPVMRKCLQSLCDLRLSPHFPHTAALDQAVGAAVTSMGPEVVLQAVPLEIDGSEETLDFPRSWLLPVIRDHVQETRLGFFTTYFLPLANTLKSKAMDLAQAGSTVESKIYDTLQWQMWTLLPGFCTRPTDVAISFKGLARTLGMAISERPDLRVTVCQALRTLITKGCQAEADRAEVSRFAKNFLPILFNLYGQPVAAGDTPAPRRAVLETIRTYLTITDTQLVNSLLEKASEKVLDPASSDFTRLSVLDLVVALAPCADEAAISKLYSTIRPYLESKAHGVQKKAYRVLEEVCASPQGPGALFVQSHLEDLKKTLLDSLRSTSSPAKRPRLKCLLHIVRKLSAEHKEFITALIPEVILCTKEVSVGARKNAFALLVEMGHAFLRFGSNQEEALQCYLVLIYPGLVGAVTMVSCSILALTHLLFEFKGLMGTSTVEQLLENVCLLLASRTRDVVKSALGFIKVAVTVMDVAHLAKHVQLVMEAIGKLSDDMRRHFRMKLRNLFTKFIRKFGFELVKRLLPEEYHRVLVNIRKAEARAKRHRALSQAAVEEEEEEEEEEEPAQGKGDSIEEILADSEDEEDNEEEERSRGKEQRKLARQRSRAWLKEGGGDEPLNFLDPKVAQRVLATQPGPGRGRKKDHGFKVSADGRLIIREEADGNKMEEEEGAKGEDEEMADPMEDVIIRNKKHQKLKHQKEAEEEELEIPPQYQAGGSGIHRPVAKKAMPGAEYKAKKAKGDVKKKGRPDPYAYIPLNRSKLNRRKKMKLQGQFKGLVKAARRGSQVGHKNRRKDRRP [RRP12] | 3.24 | 7.79 | 0.248 | 46.3 °C | 49 °C | -0.758
MGRVQLFEISLSHGRVVYSPGEPLAGTVRVRLGAPLPFRAIRVTCIGSCGVSNKANDTAWVVEEGYFNSSLSLADKGSLPAGEHSFPFQFLLPATAPTSFEGPFGKIVHQVRAAIHTPRFSKDHKCSLVFYILSPLNLNSIPDIEQPNVASATKKFSYKLVKTGSVVLTASTDLRGYVVGQALQLHADVENQSGKDTSPVVASLLQKVSYKAKRWIHDVRTIAEVEGAGVKAWRRAQWHEQILVPALPQSALPGCSLIHIDYYLQVSLKAPEATVTLPVFIGNIAVNHAPVSPRPGLGLPPGAPPLVVPSAPPQEEAEAEAAAGGPHFLDPVFLSTKSHSQRQPLLATLSSVPGAPEPCPQDGSPASHPLHPPLCISTGATVPYFAEGSGGPVPTTSTLILPPEYSSWGYPYEAPPSYEQSCGGVEPSLTPES [ARRDC1] | -1.09 | -1.63 | -0.0855 | 53.2 °C | 52.1 °C | 0.131
MGSAGLSRLHGLFAVYKPPGLKWKHLRDTVELQLLKGLNARKPPAPKQRVRFLLGPMEGSEEKELTLTATSVPSFINHPLVCGPAFAHLKVGVGHRLDAQASGVLVLGVGHGCRLLTDMYNAHLTKDYTVRGLLGKATDDFREDGRLVEKTTYDHVTREKLDRILAVIQGSHQKALVMYSNLDLKTQEAYEMAVRGLIRPMNKSPMLITGIRCLYFAPPEFLLEVQCMHETQKELRKLVHEIGLELKTTAVCTQVRRTRDGFFTLDSALLRTQWDLTNIQDAIRAATPQVAAELEKSLSPGLDTKQLPSPGWSWDSQGPSSTLGLERGAGQ [TRUB2] | -0.241 | 0.385 | 0.16 | 50.2 °C | 50 °C | -0.103
MGSLFRSETMCLAQLFLQSGTAYECLSALGEKGLVQFRDLNQNVSSFQRKFVGEVKRCEELERILVYLVQEINRADIPLPEGEASPPAPPLKQVLEMQEQLQKLEVELREVTKNKEKLRKNLLELIEYTHMLRVTKTFVKRNVEFEPTYEEFPSLESDSLLDYSCMQRLGAKLGFVSGLINQGKVEAFEKMLWRVCKGYTIVSYAELDESLEDPETGEVIKWYVFLISFWGEQIGHKVKKICDCYHCHVYPYPNTAEERREIQEGLNTRIQDLYTVLHKTEDYLRQVLCKAAESVYSRVIQVKKMKAIYHMLNMCSFDVTNKCLIAEVWCPEADLQDLRRALEEGSRESGATIPSFMNIIPTKETPPTRIRTNKFTEGFQNIVDAYGVGSYREVNPALFTIITFPFLFAVMFGDFGHGFVMFLFALLLVLNENHPRLNQSQEIMRMFFNGRYILLLMGLFSVYTGLIYNDCFSKSVNLFGSGWNVSAMYSSSHPPAEHKKMVLWNDSVVRHNSILQLDPSIPGVFRGPYPLGIDPIWNLATNRLTFLNSFKMKMSVILGIIHMTFGVILGIFNHLHFRKKFNIYLVSIPELLFMLCIFGYLIFMIFYKWLVFSAETSRVAPSILIEFINMFLFPASKTSGLYTGQEYVQRVLLVVTALSVPVLFLGKPLFLLWLHNGRSCFGVNRSGYTLIRKDSEEEVSLLGSQDIEEGNHQVEDGCREMACEEFNFGEILMTQVIHSIEYCLGCISNTASYLRLWALSLAHAQLSDVLWAMLMRVGLRVDTTYGVLLLLPVIALFAVLTIFILLIMEGLSAFLHAIRLHWVEFQNKFYVGAGTKFVPFSFSLLSSKFNNDDSVA [ATP6V0A2] | -2.85 | -3.91 | -0.0408 | 55.8 °C | 56.5 °C | -0.303

Source: the supplement of paper PMC5998384
